Laboratory results reported in the supplement of paper PMC5998384.

Experiments:
[1] = test system: HeLa Kyoto; experiment: solubility in G1/S (NP-40 vs SDS abundance) (log2 ratio); higher = more soluble; conditions: cell cycle stage: G1/S
[2] = test system: HeLa Kyoto; experiment: solubility change mitosis vs G1/S (difference of NP-40 vs SDS log2 ratios) (log2 ratio difference); higher = more soluble in mitosis
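For solubility change mitosis vs G1/S (difference of NP-40 vs SDS log2 ratios) in this document: synchronized HeLa Kyoto cells (double thymidine block for G1/S, nocodazole release for mitosis), protein amounts in NP-40 versus SDS lysates quantified by mass spectrometry, three biological replicates.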
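For solubility in G1/S (NP-40 vs SDS abundance) in this document: HeLa Kyoto cells arrested at G1/S by double thymidine block, proteins quantified by TMT10plex mass spectrometry in mild NP-40 versus SDS extracts, three biological replicates.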

| Sequence | solubility in G1/S (log2) [1] | solubility change mitosis (log2) [2] |
| --- | --- | --- |
| MDSTKEKCDSYKDDLLLRMGLNDNKAGMEGLDKEKINKIIMEATKGSRFYGNELKKEKQVNQRIENMMQQKAQITSQQLRKAQLQVDRFAMELEQSRNLSNTIVHIDMDAFYAAVEMRDNPELKDKPIAVGSMSMLSTSNYHARRFGVRAAMPGFIAKRLCPQLIIVPPNFDKYRAVSKEVKEILADYDPNFMAMSLDEAYLNITKHLEERQNWPEDKRRYFIKMGSSVENDNPGKEVNKLSEHERSISPLLFEESPSDVQPPGDPFQVNFEEQNNPQILQNSVVFGTSAQEVVKEIRFRIEQKTTLTASAGIAPNTMLAKVCSDKNKPNGQYQILPNRQAVMDFIKDLPIRKVSGIGKVTEKMLKALGIITCTELYQQRALLSLLFSETSWHYFLHISLGLGSTHLTRDGERKSMSVERTFSEINKAEEQYSLCQELCSELAQDLQKERLKGRTVTIKLKNVNFEVKTRASTVSSVVSTAEEIFAIAKELLKTEIDADFPHPLRLRLMGVRISSFPNEEDRKHQQRSIIGFLQAGNQALSATECTLEKTDKDKFVKPLEMSHKKSFFDKKRSERKWSHQDTFKCEAVNKQSFQTSQPFQVLKKKMNENLEISENSDDCQILTCPVCFRAQGCISLEALNKHVDECLDGPSISENFKMFSCSHVSATKVNKKENVPASSLCEKQDYEAHPKIKEISSVDCIALVDTIDNSSKAESIDALSNKHSKEECSSLPSKSFNIEHCHQNSSSTVSLENEDVGSFRQEYRQPYLCEVKTGQALVCPVCNVEQKTSDLTLFNVHVDVCLNKSFIQELRKDKFNPVNQPKESSRSTGSSSGVQKAVTRTKRPGLMTKYSTSKKIKPNNPKHTLDIFFK [POLK] | -0.534 | 0.335 |
| MNFEGLDPGLAEYAPAMHSALDPVLDAHLNPSLLQNVELDPEGVALEALPVQESVHIMEGVYSELHSVVAEVGVPVSVSHFDLHEEMLWVGSHGGHATSFFGPALERYSSFQVNGSDDIRQIQSLENGILFLTKNNLKYMARGGLIIFDYLLDENEDMHSLLLTDSSTLLVGGLQNHIIEIDLNTVQETQKYAVETPGVTIMRQTNRFFFCGHTSGKVSLRDLRTFKVEHEFDAFSGSLSDFDVHGNLLAACGFSSRLTGLACDRFLKVYDLRMMRAITPLQVHVDPAFLRFIPTYTSRLAIISQSGQCQFCEPTGLANPADIFHVNPVGPLLMTFDVSASKQALAFGDSEGCVHLWTDSPEPSFNPYSRETEFALPCLVDSLPPLDWSQDLLPLSLIPVPLTTDTLLSDWPAANSAPAPRRAPPVDAEILRTMKKVGFIGYAPNPRTRLRNQIPYRLKESDSEFDSFSQVTESPVGREEEPHLHMVSKKYRKVTIKYSKLGLEDFDFKHYNKTLFAGLEPHIPNAYCNCMIQVLYFLEPVRCLIQNHLCQKEFCLACELGFLFHMLDLSRGDPCQGNNFLRAFRTIPEASALGLILADSDEASGKGNLARLIQRWNRFILTQLHQDMQELEIPQAYRGAGGSSFCSSGDSVIGQLFSCEMENCSLCRCGSETVRASSTLLFTLSYPDGSKSDKTGKNYDFAQVLKRSICLDQNTQAWCDTCEKYQPTIQTRNIRHLPDILVINCEVNSSKEADFWRMQAEVAFKMAVKKHGGEISKNKEFALADWKELGSPEGVLVCPSIEELKNVWLPFSIRMKMTKNKGLDVCNWTDGDEMQWGPARAEEEHGVYVYDLMATVVHILDSRTGGSLVAHIKVGETYHQRKEGVTHQQWYLFNDFLIEPIDKHEAVQFDMNWKVPAILYYVKRNLNSRYNLNIKNPIEASVLLAEASLARKQRKTHTTFIPLMLNEMPQIGDLVGLDAEFVTLNEEEAELRSDGTKSTIKPSQMSVARITCVRGQGPNEGIPFIDDYISTQEQVVDYLTQYSGIKPGDLDAKISSKHLTTLKSTYLKLRFLIDIGVKFVGHGLQKDFRVINLMVPKDQVLDTVYLFHMPRKRMISLRFLAWYFLDLKIQGETHDSIEDARTALQLYRKYLELSKNGTEPESFHKVLKGLYEKGRKMDWKVPEPEGQTSPKNAAVFSSVLAL [PAN2] | -0.18 | 0.206 |
| MEFSIKQSPLSVQSVVKCIKMKQAPEILGSANGKTPSCEVNRECSVFLSKAQLSSSLQEGVMQKFNGHDALPFIPADKLKDLTSRVFNGEPGAHDAKLRFESQEMKGIGTPPNTTPIKNGSPEIKLKITKTYMNGKPLFESSICGDSAADVSQSEENGQKPENKARRNRKRSIKYDSLLEQGLVEAALVSKISSPSDKKIPAKKESCPNTGRDKDHLLKYNVGDLVWSKVSGYPWWPCMVSADPLLHSYTKLKGQKKSARQYHVQFFGDAPERAWIFEKSLVAFEGEGQFEKLCQESAKQAPTKAEKIKLLKPISGKLRAQWEMGIVQAEEAASMSVEERKAKFTFLYVGDQLHLNPQVAKEAGIAAESLGEMAESSGVSEEAAENPKSVREECIPMKRRRRAKLCSSAETLESHPDIGKSTPQKTAEADPRRGVGSPPGRKKTTVSMPRSRKGDAASQFLVFCQKHRDEVVAEHPDASGEEIEELLRSQWSLLSEKQRARYNTKFALVAPVQAEEDSGNVNGKKRNHTKRIQDPTEDAEAEDTPRKRLRTDKHSLRKRDTITDKTARTSSYKAMEAASSLKSQAATKNLSDACKPLKKRNRASTAASSALGFSKSSSPSASLTENEVSDSPGDEPSESPYESADETQTEVSVSSKKSERGVTAKKEYVCQLCEKPGSLLLCEGPCCGAFHLACLGLSRRPEGRFTCSECASGIHSCFVCKESKTDVKRCVVTQCGKFYHEACVKKYPLTVFESRGFRCPLHSCVSCHASNPSNPRPSKGKMMRCVRCPVAYHSGDACLAAGCSVIASNSIICTAHFTARKGKRHHAHVNVSWCFVCSKGGSLLCCESCPAAFHPDCLNIEMPDGSWFCNDCRAGKKLHFQDIIWVKLGNYRWWPAEVCHPKNVPPNIQKMKHEIGEFPVFFFGSKDYYWTHQARVFPYMEGDRGSRYQGVRGIGRVFKNALQEAEARFREIKLQREARETQESERKPPPYKHIKVNKPYGKVQIYTADISEIPKCNCKPTDENPCGFDSECLNRMLMFECHPQVCPAGEFCQNQCFTKRQYPETKIIKTDGKGWGLVAKRDIRKGEFVNEYVGELIDEEECMARIKHAHENDITHFYMLTIDKDRIIDAGPKGNYSRFMNHSCQPNCETLKWTVNGDTRVGLFAVCDIPAGTELTFNYNLDCLGNEKTVCRCGASNCSGFLGDRPKTSTTLSSEEKGKKTKKKTRRRRAKGEGKRQSEDECFRCGDGGQLVLCDRKFCTKAYHLSCLGLGKRPFGKWECPWHHCDVCGKPSTSFCHLCPNSFCKEHQDGTAFSCTPDGRSYCCEHDLGAASVRSTKTEKPPPEPGKPKGKRRRRRGWRRVTEGK [WHSC1] | -1.29 | 0.535 |
| MFRLLSWSLGRGFLRAAGRRCRGCSARLLPGLAGGPGPEVQVPPSRVAPHGRGPGLLPLLAALAWFSRPAAAEEEEQQGADGAAAEDGADEAEAEIIQLLKRAKLSIMKDEPEEAELILHDALRLAYQTDNKKAITYTYDLMANLAFIRGQLENAEQLFKATMSYLLGGGMKQEDNAIIEISLKLASIYAAQNRQEFAVAGYEFCISTLEEKIEREKELAEDIMSVEEKANTHLLLGMCLDACARYLLFSKQPSQAQRMYEKALQISEEIQGERHPQTIVLMSDLATTLDAQGRFDEAYIYMQRASDLARQINHPELHMVLSNLAAVLMHRERYTQAKEIYQEALKQAKLKKDEISVQHIREELAELSKKSRPLTNSVKL [TTC19] | 0.331 | 0.00456 |
| MGVQGFQEFLEKRCPGAVVPVDLLKLARTVSRQQQQQHLHRQLPPTAALAPGAPRAARGSVPLQPPLPPAALGAYSGGAGPTRHHHPAHHFHHHGQAQPGLHPPLPPPPPPQLPGARVLVDAGSALPRLYGGYQTDWVCGGQWNAMLGYLSALCQACAYPGGDGLELVVMFPGGLGKDRLAEWGRRCQAERQTAQLIVGHVGNKGTPPPRAWFLPPACLSHCVRLALIRFRVKVFQSLEDHHLEVVAFFRENGFHGLLAHDSEYALYNIPSYYSSHALKLSWNGKNLTTNQFLMQEVAKQLGLKRMNFPIFAALLGNHILPDEDLAAFHWSLLGPEHPLASLKVRAHQLVLPPCDVVIKAVSEYVSSIKDPSNLDVVGKDVFKQSQSRTEDKIERFKKAVEYYSVTTKLSSLPVGPSFLGFRNNRLGNPPLPRNQVGTISAGKPMFSHQVPQKVKYPPPFPVGPNSSLLFSSHALGESHAFSEDPMLQNSPFANWAVSYDSSASQFPNYLPSKASPPLGPDSSHSSSSDGDEPNGASSDHITEAFHHQPEWGNPNRDRGSWAQPVDTGVSEASLGDGEPHIPSLLSMSTRNHMDITIPPLPPVAPEVLRVAEHRHRRGLMYPYIYHVLTKGEIKIPVCIEDECNMELPPAALLFRSARQYVYGVLFSLAETQRKMERLAMRRRLPVEVPSVILKEWSAYKGKSPQTPELVSALTFREWTCPNLKKLWLGKAVEDKNRRMRAFLACMKSDTPSMLNPANVPTHLLLMCCVLRYMVQWPGGRILHRHELDTFLAQAVSTQLYEPDRLQELKIEKLDARGIQLAALFMSGVDTALFANDACGQPVPWEHCCPWIYFDGKLFQSKLIKAGRERVSLVELCDGQADLATKVEKMRQSILEGVNMNHPPPSALLPSPTFVPPMVPSLYPVSLYSRAMGSMPLPPQGRSRGFAGLHPIPPQGGKLEIAGMVVGQWAGSRSSRGRGSFGMQVVSVGGPGKGHGKEQTGRGSKGHKKGNKQGSSDGVSKSLELHQGRSRSQVNGNSGALIKEEKSDHRLPAPSQCALSRDSNECNNGNRYLPMNNREKNHLQEQKLETVAQRKED [FAM120C] | 0.0177 | -0.0292 |
| MLRRPAPALAPAARLLLAGLLCGGGVWAARVNKHKPWLEPTYHGIVTENDNTVLLDPPLIALDKDAPLRFAESFEVTVTKEGEICGFKIHGQNVPFDAVVVDKSTGEGVIRSKEKLDCELQKDYSFTIQAYDCGKGPDGTNVKKSHKATVHIQVNDVNEYAPVFKEKSYKATVIEGKQYDSILRVEAVDADCSPQFSQICSYEIITPDVPFTVDKDGYIKNTEKLNYGKEHQYKLTVTAYDCGKKRATEDVLVKISIKPTCTPGWQGWNNRIEYEPGTGALAVFPNIHLETCDEPVASVQATVELETSHIGKGCDRDTYSEKSLHRLCGAAAGTAELLPSPSGSLNWTMGLPTDNGHDSDQVFEFNGTQAVRIPDGVVSVSPKEPFTISVWMRHGPFGRKKETILCSSDKTDMNRHHYSLYVHGCRLIFLFRQDPSEEKKYRPAEFHWKLNQVCDEEWHHYVLNVEFPSVTLYVDGTSHEPFSVTEDYPLHPSKIETQLVVGACWQEFSGVENDNETEPVTVASAGGDLHMTQFFRGNLAGLTLRSGKLADKKVIDCLYTCKEGLDLQVLEDSGRGVQIQAHPSQLVLTLEGEDLGELDKAMQHISYLNSRQFPTPGIRRLKITSTIKCFNEATCISVPPVDGYVMVLQPEEPKISLSGVHHFARAASEFESSEGVFLFPELRIISTITREVEPEGDGAEDPTVQESLVSEEIVHDLDTCEVTVEGEELNHEQESLEVDMARLQQKGIEVSSSELGMTFTGVDTMASYEEVLHLLRYRNWHARSLLDRKFKLICSELNGRYISNEFKVEVNVIHTANPMEHANHMAAQPQFVHPEHRSFVDLSGHNLANPHPFAVVPSTATVVIVVCVSFLVFMIILGVFRIRAAHRRTMRDQDTGKENEMDWDDSALTITVNPMETYEDQHSSEEEEEEEEEEESEDGEEEDDITSAESESSEEEEGEQGDPQNATRQQQLEWDDSTLSY [CLSTN1] | -0.0306 | -0.189 |
| MGSELIGRLAPRLGLAEPDMLRKAEEYLRLSRVKCVGLSARTTETSSAVMCLDLAASWMKCPLDRAYLIKLSGLNKETYQSCLKSFECLLGLNSNIGIRDLAVQFSCIEAVNMASKILKSYESSLPQTQQVDLDLSRPLFTSAALLSACKILKLKVDKNKMVATSGVKKAIFDRLCKQLEKIGQQVDREPGDVATPPRKRKKIVVEAPAKEMEKVEEMPHKPQKDEDLTQDYEEWKRKILENAASAQKATAE [ORC6] | 0.47 | -0.389 |
| MNRVLCAPAAGAVRALRLIGWASRSLHPLPGSRDRAHPAAEEEDDPDRPIEFSSSKANPHRWSVGHTMGKGHQRPWWKVLPLSCFLVALIIWCYLREESEADQWLRQVWGEVPEPSDRSEEPETPAAYRART [CCSMST1] | -0.299 | 0.566 |
